What was measured:
Assay in all cases: BLI; Octet RED; antibody (IgG, 10 µg/mL) immobilised on anti-human IgG Fc capture biosensors; antigen as analyte, six twofold dilutions from 2 µM (gp120 monomers) or 500 nM (BG505.SOSIP.664 trimer); 1X PBS, 0.1% BSA, 0.005% Tween-20, 0.02% sodium azide; 23°C; association 180 s, dissociation 180 s; double reference subtraction; global 1:1 fit
[1] = target: ∆CDR1VH heavy chain chimera paired with the mature light chain (human)
[2] = target: mature heavy chain paired with the inferred naive light chain (matVH 0VL) (human)
Chain of mature heavy chain paired with the inferred naive light chain (matVH 0VL) (human) (heavy, as listed by the source): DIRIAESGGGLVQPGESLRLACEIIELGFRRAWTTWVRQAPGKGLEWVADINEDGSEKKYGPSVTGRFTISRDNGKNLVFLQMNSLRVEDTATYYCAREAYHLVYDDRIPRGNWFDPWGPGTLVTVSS

[3] = target: mature heavy chain paired with Int5∆FWR2-FWR3VL (human)
Chain of mature heavy chain paired with Int5∆FWR2-FWR3VL (human) (heavy, as listed by the source): as above

Chain of ∆CDR1VH heavy chain chimera paired with the mature light chain (human) (light, as listed by the source): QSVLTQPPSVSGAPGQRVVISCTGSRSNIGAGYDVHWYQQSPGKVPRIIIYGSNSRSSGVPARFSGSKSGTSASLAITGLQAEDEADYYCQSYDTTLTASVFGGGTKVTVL

In the case of “BG505.SOSIP.664 trimer (from UniProt Q2N0S6 1-860; Q2N0S6 1-860) (complex)”, the Kd [1] is reported as 40.6 nM, the Kd [2] is reported as 89.6 nM and the Kd [3] is reported as 1300 nM.
